Values belong to the binder of their own block, whether it stands above or below them.
Target: T1, recombinant human FcRn (Sino Biological) (human, UniProt P55899 24-297; P61769 21-119)
T1 construct: the two chains are those of natural FcRn
Experiment: ELISA at pH 6.0: plate coated with recombinant human FcRn, antibody titrated, goat anti-human Fc-HRP, OD650
Description: FcRn binding was evaluated using an enzyme linked immunoassay (ELISA). Briefly, 96-well ELISA plates were coated with of recombinant human FcRn (Sino Biological, Inc, Beijing, China) in 1× PBS (pH 6.0) coating buffer. Subsequently, the plates were washed and blocked with ELISA blocking buffer. […] After washing to remove unbound antibodies, the bound antibodies were detected with horseradish peroxidase (HRP) conjugated goat anti-human Fc-specific polyclonal antibody (Jackson ImmunoResearch, West Grove, PA). After washing to remove unbound detection antibody, a slow kinetic substrate solution of tetramethylbenzidine (TMB) was added to the wells where color develops in proportion to the amount of testing samples. The optical density (OD) of the color was measured at 650 nm and was used for determination of the amount of testing samples bound to FcRn. Detectable binding of antibodies over the range of test concentrations was analyzed using the one-site binding, nonlinear regression analysis with GraphPad Prism.

binding result: binds
B1: Anti-EGFR Mab No. 3, L234A, L235A, L328C (antibody, human IgG1, L234A L235A)
heavy: QVQLQQSGAEVKKPGSSVKVSCKASGYTFTNYYIYWVRQAPGQGLEWIGGINPTSGGSNFNEKFKTRVTITADESSTTAYMELSSLRSEDTAFYFCTRQGLWFDSDGRGFDFWGQGTTVTVSSASTKGPSVFPLAPSSKSTSGGTAALGCLVKDYFPEPVTVSWNSGALTSGVHTFPAVLQSSGLYSLSSVVTVPSSSLGTQTYICNVNHKPSNTKVDKRVEPKSCDKTHTCPPCPAPEAAGGPSVFLFPPKPKDTLMISRTPEVTCVVVDVSHEDPEVKFNWYVDGVEVHNAKTKPREEQYNSTYRVVSVLTVLHQDWLNGKEYKCKVSNKACPAPIEKTISKAKGQPREPQVYTLPPSREEMTKNQVSLTCLVKGFYPSDIAVEWESNGQPENNYKTTPPVLDSDGSFFLYSKLTVDKSRWQQGNVFSCSVMHEALHNHYTQKSLSLSPGK
light: DIQMTQSPSSLSASVGDRVTITCRSSQNIVHSNGNTYLDWYQQTPGKAPKLLIYKVSNRFSGVPSRFSGSGSGTDFTFTISSLQPEDIATYYCFQYSHVPWTFGQGTKLQITREVAAPSVFIFPPSDEQLKSGTASVVCLLNNFYPREAKVQWKVDNALQSGNSQESVTEQDSKDSTYSLSSTLTLSKADYEKHKVYACEVTHQGLSSPVTKSFNRGEC
notes: Fc variant; also called Anti-EGFR Ab No. 3 L234A, L235A, L328C; triple mutant

binding result: binds
B2: Anti-EGFR Mab No. 3, L328C (antibody, human IgG1)
heavy: not shown
light: B1 light
notes: Fc variant; also called Anti-EGFR Ab No. 3 L328C; single mutant

— patent US20240058466A1 (TAE LIFE SCIENCES, published 2024)
